The text below walks through data of publication PMC3483155, “Inhibition of Pre-mRNA Splicing by a Synthetic Blom7α-Interacting Small RNA”.

One data set concerns the target Blom7-KH (Homo sapiens, UniProt Q7Z7F0 1-317). Nature of the data set: EMSA; 1 mM Mg2+; 20 nM RNA, 0-50 nM protein; EMSA: PBS pH 7.5, 1 mM MgCl2, 1 mM DTT, 5% glycerol, 20 min at room temperature, gel at 4°C; SPR: 1x PBS, 1 mM Mg acetate, pH 7.0 (or HEPES + 3 mM Mg acetate). The conditions noted are these: protein: recombinant; tags: His6 (C-terminal as named, pET30A); label: 3' biotin; single strand. Background: In EMSA bound probe runs differently from free probe, usually more slowly.

For the next data set, the target named is Blom7α wt (Homo sapiens, UniProt Q7Z7F0 1-614). Described as above.

B1: AK48 (ssRNA)
RNA: UGCCCCAAUCCUACACGACCCAAGGCCCCC
In the case of B1, the binding result with Blom7-KH and with Blom7α wt was “binds” in each case.
